# Target: Flag-tagged collagen type III fusion protein (Flag-helix-C-tel-C-pro) expressed from YEpFlagCOLIII1.6 kb (UniProt P02461)
# UniProt P02461, sequence (P02461 other isoform, or with tags, fused parts or gaps): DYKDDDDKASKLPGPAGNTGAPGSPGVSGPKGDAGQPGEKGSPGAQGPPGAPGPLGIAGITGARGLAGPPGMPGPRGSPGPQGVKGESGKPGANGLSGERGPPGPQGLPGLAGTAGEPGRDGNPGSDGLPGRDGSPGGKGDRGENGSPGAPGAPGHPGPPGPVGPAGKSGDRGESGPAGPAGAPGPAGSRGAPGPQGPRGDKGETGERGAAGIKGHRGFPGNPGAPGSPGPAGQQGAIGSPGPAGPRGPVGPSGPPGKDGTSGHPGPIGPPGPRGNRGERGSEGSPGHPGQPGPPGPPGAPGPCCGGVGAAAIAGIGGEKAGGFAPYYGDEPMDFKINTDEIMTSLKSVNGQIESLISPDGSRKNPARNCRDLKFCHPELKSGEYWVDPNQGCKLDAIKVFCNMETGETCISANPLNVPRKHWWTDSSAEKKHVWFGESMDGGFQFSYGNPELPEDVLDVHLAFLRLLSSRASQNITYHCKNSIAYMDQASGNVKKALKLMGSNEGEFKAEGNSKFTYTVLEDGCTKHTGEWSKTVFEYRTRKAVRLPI
substance,measurement,value
"prolyl-4-hydroxylase (P4H, α2β2) expressed from pYEUra3.2.12β#39α#5",hydroxyproline by amino acid analysis of the 60 kDa band,Amino acid analysis revealed the presence of hydroxyproline in this material from co-transformants ... after induction with 0.2% galactose but no hydroxyproline was detected with protein from control samples

# Reference: patent publication US20080139477
